Measurements: patent US8540999B2, “Allergenic proteins and peptides from Japanese cedar pollen” (Merck Patent GmbH, priority 1991, dated 2013)

Tests used:
allergic patient IgE [1] = assay: Competition ELISA, wells coated with Japanese cedar pollen SPE; assay type: binding, human
Experimental: In the competition assay, ELISA wells were coated with Japanese cedar pollen SPE and then allergic patient IgE binding was measured in the presence of competing purified native Cry j I in solution. The source of allergic IgE in these assays was either the pool of plasma from 15 patients (denoted PHP) or seven individual plasma samples from patients with a Japanese cedar MAST score of 2.5 or greater. The competition assay using the pooled human plasma samples compares the competitive binding capacity of purified native Cry j I to Japanese cedar pollen SPE and an irrelevant allergen source, rye grass SPE. […] This assay was repeated with individual patients as a measure of the range of the IgE response within the allergic population.

Cry j I reactive T cells = assay: T cell proliferation assay, Cry j I primed T cell lines (Example 6); assay type: cell-based, human
Experimental: Viable cells were purified by LSM centrifugation and cultured in complete medium supplemented with 5 units recombinant human IL-2/ml and 5 units recombinant human IL-4/ml for up to three weeks until the cells no longer responded to lymphokines and were considered “rested”. The ability of the T cells to proliferate to selected peptides, recombinant Cry j I (rCry j I), purified native Cry j I, or recombinant Amb aI.1 (rAmb aI.1) or a positive control, phyto-hemaglutinin (PHA) was then assessed. For assay, 2×10^4 rested cells were restimulated in the presence of 2×10^4 autologous Epstein-Barr virus (EBV)-transformed B cells (prepared as described below) (gamma-irradiated with 25,000 RADS) with 2-50 μg/ml of selected peptides, Cry j I, purified native Cry j I or rAmb a I.1 or PHA, in a volume of 200 μl complete medium in duplicate or triplicate wells in 96-well round bottom plates for 2-4 days. […] Each well then received 1 μCi tritiated thymidine for 16-20 hours. The counts incorporated were collected onto glass fiber filter mats and processed for liquid scintillation counting. […] The titrations were used to optimize the dose of peptides in T cell assays. The maximum response in a titration of each peptide is expressed as the stimulation index (S.I.). The S.I. is the counts per minute (CPM) incorporated by cells in response to peptide, divided by the CPM incorporated by cells in medium only.
The above procedure was followed with a number of other patients. […] The bars represent the positivity index. Above each bar is the percent of positive responses with an S.I. of at least two to the peptide or protein in the group of patients tested. In parenthesis above each bar are the mean stimulation indices for each peptide or protein for the group of patients tested.
Autologous EBV-transformed cell lines were y-irradiated with 25,000 Rad and used as antigen presenting cells in secondary proliferation assays and secondary bulk stimulations. These EBV-transformed cell lines were made by incubating 5×10^6 PBL with 1 ml of B-59/8 Marmoset cell line (ATCC CRL1612, American Type Culture Collection, Rockville, Md.) conditioned medium in the presence of 1 μg/ml phorbol 12-myristate 13-acetate (PMA) at 37° C. for 60 minutes in 12×75 mm polypropylene round-bottom Falcon snap cap tubes (Becton Dickinson Labware, Lincoln Park, N.J.). These cells were then diluted to 1.25×10^6 cells/ml in RPMI-1640 as described above except supplemented with 10% heat-inactivated fetal bovine serum and cultured in 200 μl aliquots in flat bottom culture plates until visible colonies were detected. They were then transferred to larger wells until the cell lines were established.

allergic patient IgE [2] = assay: Allergic sera titration of purified subfractions of Cry j I (FIG. 3); assay type: binding, human; conditions: pool of fifteen allergic patient plasma
Excerpt: In summary, three Cry j I isoforms of different molecular weight were purified from pollen extract. The molecular weights estimated by SDS-PAGE ranged from 40-35 kD under both reducing and non-reducing conditions. The isoelectric point of these isoforms is approximately 9.5-8.6, with an average pI of 9.0. The N-terminal 20 amino acid sequence was the same in these 3 bands and was identical to previously published Cry j I sequence (Taniai et al, supra). The 3 isoforms are all recognized by monoclonal antibody CBF2 as shown in the allergic sera titration of different purified subfractions of Cry j I using a pool of fifteen allergic patient plasma. […] The difference in molecular weight and isoelectric point in these isoforms might in part be due to post-translational modification, e.g. glycosylation, phosphorylation or lipid content. The possibility that these different isoforms might be due to protease degradation cannot be ruled out at present even though it is unlikely due to the fact that four different protease inhibitors were used during extraction and purification. The other possibility could be due to polymorphism in the gene or alternate splicing in the mRNA though only one major form of Cry j I protein has been detected in cDNA cloning studies (see Example 4).

human basophil = assay: Histamine release assay; assay type: cell-based; conditions: one Japanese cedar pollen allergic patient, FIG. 11
Experimental: To determine whether a peptide which binds IgE results in the release of mediators, a histamine release assay can be performed using standard reagents and protocols obtained for example, from Amac, Inc. (Westbrook, Me.). Briefly, a buffered solution of a peptide to be tested is combined with an equal volume of whole heparinized blood from an allergic subject. After mixing and incubation, the cells are pelleted and the supernatants are processed an analyzed using a radioimmunoassay to determine the amount of histamine released.
A histamine release assay was performed on one Japanese cedar pollen allergic patient using Japanese cedar pollen SPE, purified native Cry j I and rCry j I as the added antigens. This assay is a measure of IgE reactivity through human basophil mediator release. […] Two possible explanations for this release by the rCry j I are: 1) specific reactivity with a very low proportion of the anti-Cry j I IgE capable of recognizing the recombinant form of Cry j I, or 2) non-specific release caused by low abundance of bacterial contaminants observed only at the highest antigen concentration. […] In addition, the data shown are from single data points at each protein concentration.

B1: purified native Cry j I: major allergen of Japanese cedar pollen, biochemically purified in the native form (protein)
chain: DNPIDSCWRGDSNWAQNRMKLADCAVGFGSSTMGGKGGDLYTVTNSDDDPVNPAPGTLRYGATRDRPLWIIFSGNMNIKLKMPMYIAGYKTFDGRGAQVYIGNGGPCVFIKRVSNVIIHGLYLYGCSTSVLGNVLINESFGVEPVHPQDGDALTLRTATNIWIDHNSFSNSSDGLVDVTLTSTGVTISNNLFFNHHKVMLLGHDDAYSDDKSMKVTVAFNQFGPNCGQRMPRARYGLVHVANNNYDPWTIYAIGGSSNPTILSEGNSFTAPNESYKKQVTIRIGCKTSSSCSNWVWQSTQDVFYNGAYFVSSGKYEGGNIYTKKEAFNVENGNATPQLTKNAGVLTCSLSKRC
competition for IgE binding to coated Japanese cedar pollen SPE (allergic patient IgE [1]; pooled human plasma (PHP), 15 patients, FIG. 6): competes very well
competition for IgE binding to coated Japanese cedar pollen SPE (allergic patient IgE [1]; seven individual patients, FIG. 7): could be competed
T cell line response (Cry j I reactive T cells; panel of twenty-five patients, FIG. 14): All twenty-five T cell lines responded
T cell proliferative response (Cry j I reactive T cells; patient #999, FIG. 12): responds well
IgE binding of purified isoforms (allergic patient IgE [2]): bind allergic patient IgE
histamine release (human basophil): strong histamine release
